The assay deals with T1, replication/repair factor RPA1 (human, UniProt P27694 1-616).
T1 construct: Endogenous protein in extracts of human TTD-A fibroblasts
The assay is described as follows: anti-HA immunoprecipitation from extracts of TTD-A fibroblasts expressing p8-HA, immunoblot. The text has this:
We cloned the human TFB5 cDNA from primary fibroblasts by virtue of its homology with yeast TFB5 using conventional techniques known in the art. An HA-tagged version of hTFB5 (p8-HA) was constructed via conventional molecular cloning methods (Maniatis et al, supra) and expressed in TTD-A fibroblasts and subsequently used for immuno-precipitations with anti-HA (FIG. 1a). Both the XPB core TFIIH and the associated CAK component (CDK7) were co-precipitated with p8-HA, in contrast to replication/repair factor RPA1 (data not shown). Conversely, anti-p44 (another core-TFIIH component) co-precipitated p8-HA. We conclude that, analogous to yeast, this small polypeptide is associated with TFIIH in mammalian cells.
Immunoprecipitation and immunoblot analysis. Whole cell extracts from MRC5SV, TTD1BRSV and TTD1BRSV+hTFB5HA were prepared by isolating cells from 6 petri dishes per cell line (13 cm). Collected cell-pellets were washed once in PBS prior to lysis by douncing (20 strokes using a 12.61 mm dounce homogenizer, Bellco Glass, INC., USA) in 2 ml of buffer A (50 mM Tris pH 7.9; 150 mM NaCl; 20% Glycerol; 0.1% NP40; 5 mM β-mercaptoethanol) supplemented with anti-proteases. […]
In general terms: Immunoblotting shows a protein as a band on a membrane.

T1 sequence (P27694 whole entry): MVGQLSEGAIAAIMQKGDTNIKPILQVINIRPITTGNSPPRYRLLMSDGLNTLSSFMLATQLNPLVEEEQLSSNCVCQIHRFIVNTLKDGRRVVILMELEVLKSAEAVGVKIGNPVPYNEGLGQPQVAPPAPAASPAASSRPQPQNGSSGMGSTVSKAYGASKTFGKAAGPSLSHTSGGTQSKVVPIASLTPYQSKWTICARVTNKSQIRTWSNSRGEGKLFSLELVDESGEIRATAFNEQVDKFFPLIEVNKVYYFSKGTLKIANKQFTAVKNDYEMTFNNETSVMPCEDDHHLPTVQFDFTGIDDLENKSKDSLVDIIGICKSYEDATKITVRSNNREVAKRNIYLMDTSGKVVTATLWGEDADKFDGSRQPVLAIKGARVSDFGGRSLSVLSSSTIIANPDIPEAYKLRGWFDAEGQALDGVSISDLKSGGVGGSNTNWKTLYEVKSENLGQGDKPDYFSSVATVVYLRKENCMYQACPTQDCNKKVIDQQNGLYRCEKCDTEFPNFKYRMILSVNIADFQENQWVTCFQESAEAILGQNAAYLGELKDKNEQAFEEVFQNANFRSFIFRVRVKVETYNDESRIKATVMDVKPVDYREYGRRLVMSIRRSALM

B1: HA-tagged version of hTFB5 (p8-HA) (other)
chain: MVNVLKGVLIECDPAMKQFLLYLDESNALGKKFIIQDIDDTHVFVIAELVNVLQERVGELMDQNAFSLTQK
notes: C-terminally HA-tagged TTDA cloned in pCDNA3 and expressed in TTD1BRSV (TTD-A) fibroblasts; tested in whole cell extracts; also called TTDA-HA; hTFB5HA; not shown: C-terminal HA tag
As to B1, the binding result was “no binding”.

(Values after US20060008875A1 (UNIVERSITAIR MEDISCH CENTRUM ROTTERDAM, published 2006).)
